We go through 1 molecule from patent CN1905899A (dated 2007).

The target in the test is T1, EphA2 on cells (MDA-MB-231, MCF-10A, A549, MCF-7 EphA2 transfectants, prostate cancer tissue) (human, UniProt P29317 24-976).
T1 construct: whole, on cells; The other cells are human cell lines; also called EphA2受体
As to the kind of experiment: immunofluorescence staining of cells.

T1 sequence (P29317 24-976): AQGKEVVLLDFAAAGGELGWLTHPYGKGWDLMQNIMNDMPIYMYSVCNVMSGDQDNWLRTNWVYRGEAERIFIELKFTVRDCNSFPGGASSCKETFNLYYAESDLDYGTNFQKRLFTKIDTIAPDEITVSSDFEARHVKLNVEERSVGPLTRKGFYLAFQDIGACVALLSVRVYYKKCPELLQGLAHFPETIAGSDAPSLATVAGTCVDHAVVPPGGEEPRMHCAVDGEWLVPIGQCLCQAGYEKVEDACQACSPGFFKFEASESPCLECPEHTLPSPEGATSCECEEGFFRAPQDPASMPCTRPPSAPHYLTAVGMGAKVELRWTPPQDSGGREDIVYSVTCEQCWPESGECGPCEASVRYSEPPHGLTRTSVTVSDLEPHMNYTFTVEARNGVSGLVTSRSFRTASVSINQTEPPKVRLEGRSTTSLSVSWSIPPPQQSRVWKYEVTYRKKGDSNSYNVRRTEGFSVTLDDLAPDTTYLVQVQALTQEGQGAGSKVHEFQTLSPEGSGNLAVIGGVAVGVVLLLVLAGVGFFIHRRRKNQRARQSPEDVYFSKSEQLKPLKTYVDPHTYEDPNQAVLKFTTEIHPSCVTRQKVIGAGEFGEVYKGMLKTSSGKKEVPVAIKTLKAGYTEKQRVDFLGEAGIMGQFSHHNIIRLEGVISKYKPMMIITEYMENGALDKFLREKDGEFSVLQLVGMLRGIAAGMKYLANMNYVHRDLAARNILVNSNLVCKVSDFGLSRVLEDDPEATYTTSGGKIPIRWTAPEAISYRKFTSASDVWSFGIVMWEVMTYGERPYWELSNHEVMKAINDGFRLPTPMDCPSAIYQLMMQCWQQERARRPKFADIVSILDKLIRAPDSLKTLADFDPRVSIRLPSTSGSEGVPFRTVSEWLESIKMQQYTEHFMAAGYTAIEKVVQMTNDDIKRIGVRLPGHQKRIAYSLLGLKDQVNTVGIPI

B1: EA2 anti-EphA2 monoclonal antibody (hybridoma strain EA2.31, ATCC PTA-4380) (antibody, V domains shown)
VH: DVKLVESGGGLVKPGGSLKLSCAASGFTFSSYTMSWVRQTPEKRLEWVATISSGGTYTYYPDSVKGRFTISRDNAKNTLYLQMSSLKSEDTAMYYCTREAIFTYWGQGTLVTVSA
VL: DIKMTQSPSSMYASLGERVTITCKASQDINNYLSWFQQKPGKSPKTLIYRANRVDGVPSRFSGSGSGQDYSLTISSLEYEDMGIYYCLKYDEFPYTFGGGTKLEIK
notes: Mouse hybridoma monoclonal
B1: the binding result was “binds”.
